{"source": "patent US6670183B2", "about": "“88kDa tumorigenic growth factor and antagonists” (A & G Pharmaceutical, Inc., priority 1997, dated 2003)", "key": {"[1]": {"test_system": "GP88 cell surface receptors on CCL64 cells", "test": "^125I-GP88 binding to CCL64 cells, Scatchard analysis", "set-up": "species or system mink", "details": "2 hours at 25° C.", "description": "Recombinant GP88 (rGP88) was iodinated by the chloramine T method at 4° C. Other known methods can also be applied. Briefly, 1 μg of GP88 was incubated for 2 min with ^125I Na (100 μCi) that had been preincubated for 90 seconds with 2 μg chloramine T. The reaction was quenched with the addition of 100 μl saturated tyrosine, 10 μl of a 1% solution of bovine serum albumin (BSA) and 2 μg of sodium metabisulfite. After addition of 100 μl PBS, the iodinated protein was separated from free Na^125I by gel filtration on a Sephadex-G50 column that had been preincubated with PBS containing 1% bovine serum albumin and then extensively washed with PBS to reduce non-specific binding. The labeled proteins were eluted with PBS and fractions monitored for radioactivity. Amount of incorporated radioactivity was estimated by TCA precipitation. Specific activity of ^125I-GP88 was typically 30-50 μCi/μg. […]\nThe example provided here describes binding assay with the mink lung epithelial cell line CCL64 but has also been applied to several cell lines including the 1246, PC cell lines and the mammary epithelial cell line C57MG. […] The cells were harvested by centrifugation, washed with culture medium and counted with a hemocytometer. […] Cell pellets were counted with a gamma counter. […]"}, "[2]": {"test_system": "mouse mammary epithelial cell line C57MG", "test": "DNA synthesis (^3H-thymidine incorporation) in serum-starved C57MG cells", "format": "cell-based", "description": "We investigated the effect of GP88 on the proliferation of a variety of cell lines including fibroblasts and mammary epithelial cells.\nThe ability of GP88 purified from PC cells (upper panel) and recombinant GP88, rGP88 (lower panel), to stimulate DNA synthesis in C57MG cells was measured by incorporation of ^3H-thymidine in serum-starved quiescent cells."}}, "note": "Read-outs that look alike come from different tables or passages of the source."}
{"molecule": "rGP88: recombinant mouse GP88 expressed in baculovirus infected Sf9 insect cells; iodinated as binding ligand (protein) TQCPDGQFCPVACCLDQGGANYSCCNPLLDTWPRITSHHLDGSCQTHGHCPAGYSCLLTVSGTSSCCPFSKGVSCGDGYHCCPQGFHCSADGKSCFQMSDNPLGAVQCPGSQFECPDSATCCIMVDGSWGCCPMPQASCCEDRVHCCPHGASCDLVHTRCVSPTGTHTLLKKFPAQKTNSAVSLPFSVVCPDAKTQCPDDSTCCELPTGKYGCCPMPNAICCSDHLHCCPQDTVCDLIQSKCLSKNYTTDLLTKLPGYPVKEVKCDMEVSCPEGYTCCRLNTGAWGCCPFAKAVCCDDHIHCCPAGFQCHTEKGTCEMGILQVGWMKKVIAPLRLPDPQILKSDTPCDDFTRCPTNNTCCKLNSGDWGCCPIPEAVCCSDNQHCCPQGFTCLAQGYCQKGDTMVAGLEKIPARQTTPLQIGDIGCDQHTSCPVGQTCCPSLKGSWACCQLPHAVCCEDRQHCCPAGYTCNVKARTCEKDVDFIQPPVLLTLGPKVGNVECGEGHFCHDNQTCCKDSAGVWACCPYLKGVCCRDGRHCCPGGFHCSARGTKCLRKKIPRWDMFLRDPVPRPLL", "values": [{"measurement": "Kd", "setting": "[1]; read-out: Kd, high affinity class of receptors", "result": 0.043, "unit": "nM"}, {"measurement": "Kd", "setting": "[1]; read-out: Kd, low affinity class of receptors", "result": 3.9, "unit": "nM"}, {"measurement": "increase in DNA synthesis", "setting": "[2]; 150 ng/ml (2 nM)", "result": 5, "unit": "fold"}, {"measurement": "biological activity compared with PC cell derived GP88", "setting": "[2]; FIG. 6", "result": "identical to that of GP88 purified from PC cells"}]}
